Reference: the supplement of paper PMC7125110
± gives the standard error. For some of these results: Variants at the floor of the assay were thinned out.

B1: glmS ribozyme (parent)
chain: AUAAAAGCGCCAGAACUACAGAAAUGUAGUUGACGAGGAGGAGGUUUAUCGAAUUUUCGGCGGAUGCCUCCAAA

What was measured:
Details in all cases: with glucosamine-6-phosphate
glucosamine-6-phosphate [1] = variants of: B1; assay: kcat; higher = faster cleavage; RNA array
How it was run: (§1)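 Using a hybridised Cy3 probe at 37 °C, barcoded ribozyme variants transcribed in situ by E. coli RNA polymerase on sequenced MiSeq chips were monitored across tiles imaged over ~14 h. The flow contained glucosamine-6-phosphate from 40 μM to 10 mM in HEPES/KCl/Mg(OAc)2 buffer. Signals were normalised to baseline and to non-cleaving reference variants before per-tile medians were fit to one- or two-exponential decays to yield kobs. Weighted Michaelis–Menten fits across concentrations gave kcat and KM.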

glucosamine-6-phosphate [2] = variants of: B1; assay: KM; higher = weaker cofactor use; RNA array
How it was run: as §1

glucosamine-6-phosphate [3] = variants of: B1; assay: self-cleavage kobs at 640 uM GlcN6P; higher = faster cleavage; RNA array
How it was run: as §1

glucosamine-6-phosphate [4] = variants of: B1; assay: self-cleavage kobs at 2500 uM GlcN6P; higher = faster cleavage; RNA array
How it was run: as §1

glucosamine-6-phosphate [5] = variants of: B1; assay: self-cleavage kobs at 10000 uM GlcN6P; higher = faster cleavage; RNA array
How it was run: as §1

glucosamine-6-phosphate [6] = variants of: B1; assay: self-cleavage kobs at 40 uM GlcN6P; higher = faster cleavage; RNA array
How it was run: as §1

glucosamine-6-phosphate [7] = variants of: B1; assay: self-cleavage kobs at 160 uM GlcN6P; higher = faster cleavage; RNA array
How it was run: as §1

G51U C67G
kcat (glucosamine-6-phosphate [1]): < 1e-05 s⁻¹

A15C A52G
kcat (glucosamine-6-phosphate [1]): 0.000755 ± 0.00022 s⁻¹ | KM (glucosamine-6-phosphate [2]): 7.75 ± 3.2 mM | self-cleavage kobs at 640 uM GlcN6P (glucosamine-6-phosphate [3]): 6.9e-05 ± 1.1e-05 s⁻¹ | self-cleavage kobs at 2500 uM GlcN6P (glucosamine-6-phosphate [4]): 0.000164 ± 2e-05 s⁻¹ | self-cleavage kobs at 10000 uM GlcN6P (glucosamine-6-phosphate [5]): 0.000449 ± 5.5e-05 s⁻¹

G13U U55A
kcat (glucosamine-6-phosphate [1]): 0.00182 ± 0.00037 s⁻¹ | KM (glucosamine-6-phosphate [2]): 3.54 ± 1.2 mM | self-cleavage kobs at 40 uM GlcN6P (glucosamine-6-phosphate [6]): 3.28e-05 ± 7.2e-06 s⁻¹ | self-cleavage kobs at 160 uM GlcN6P (glucosamine-6-phosphate [7]): 8.82e-05 ± 1.7e-05 s⁻¹ | self-cleavage kobs at 640 uM GlcN6P (glucosamine-6-phosphate [3]): 0.000214 ± 4e-05 s⁻¹ | self-cleavage kobs at 2500 uM GlcN6P (glucosamine-6-phosphate [4]): 0.000853 ± 0.00015 s⁻¹ | self-cleavage kobs at 10000 uM GlcN6P (glucosamine-6-phosphate [5]): 0.00135 ± 0.00013 s⁻¹

C16G A48G
kcat (glucosamine-6-phosphate [1]): < 1e-05 s⁻¹ | self-cleavage kobs at 40 uM GlcN6P (glucosamine-6-phosphate [6]): < 1e-05 s⁻¹

C10A C50A
kcat (glucosamine-6-phosphate [1]): 2e-05 ± 5.5e-06 s⁻¹

C10U C16U
kcat (glucosamine-6-phosphate [1]): 1.06e-05 ± 1.7e-06 s⁻¹

U46A U54C
kcat (glucosamine-6-phosphate [1]): 0.00402 ± 0.0012 s⁻¹ | KM (glucosamine-6-phosphate [2]): 3.31 ± 1.3 mM | self-cleavage kobs at 40 uM GlcN6P (glucosamine-6-phosphate [6]): 4.31e-05 ± 1.1e-05 s⁻¹ | self-cleavage kobs at 160 uM GlcN6P (glucosamine-6-phosphate [7]): 0.000153 ± 3.9e-05 s⁻¹ | self-cleavage kobs at 640 uM GlcN6P (glucosamine-6-phosphate [3]): 0.000982 ± 0.00017 s⁻¹ | self-cleavage kobs at 2500 uM GlcN6P (glucosamine-6-phosphate [4]): 0.00157 ± 0.00051 s⁻¹ | self-cleavage kobs at 10000 uM GlcN6P (glucosamine-6-phosphate [5]): 0.00295 ± 0.00051 s⁻¹

A14C
kcat (glucosamine-6-phosphate [1]): 0.0129 ± 0.0023 s⁻¹ | KM (glucosamine-6-phosphate [2]): 3.46 ± 0.74 mM | self-cleavage kobs at 40 uM GlcN6P (glucosamine-6-phosphate [6]): 0.000163 ± 2.7e-06 s⁻¹ | self-cleavage kobs at 160 uM GlcN6P (glucosamine-6-phosphate [7]): 0.000466 ± 1.5e-05 s⁻¹ | self-cleavage kobs at 640 uM GlcN6P (glucosamine-6-phosphate [3]): 0.00185 ± 6.7e-05 s⁻¹ | self-cleavage kobs at 2500 uM GlcN6P (glucosamine-6-phosphate [4]): 0.00541 ± 0.00017 s⁻¹ | self-cleavage kobs at 10000 uM GlcN6P (glucosamine-6-phosphate [5]): 0.00971 ± 0.00024 s⁻¹

U31G U46C
kcat (glucosamine-6-phosphate [1]): 0.000896 ± 0.00013 s⁻¹ | KM (glucosamine-6-phosphate [2]): 1.72 ± 0.42 mM | self-cleavage kobs at 40 uM GlcN6P (glucosamine-6-phosphate [6]): 3.68e-05 ± 1.6e-05 s⁻¹ | self-cleavage kobs at 160 uM GlcN6P (glucosamine-6-phosphate [7]): 7.33e-05 ± 1.5e-05 s⁻¹ | self-cleavage kobs at 640 uM GlcN6P (glucosamine-6-phosphate [3]): 0.00021 ± 6.8e-05 s⁻¹ | self-cleavage kobs at 2500 uM GlcN6P (glucosamine-6-phosphate [4]): 0.000592 ± 0.00011 s⁻¹ | self-cleavage kobs at 10000 uM GlcN6P (glucosamine-6-phosphate [5]): 0.000731 ± 0.00014 s⁻¹

A12C G44C
kcat (glucosamine-6-phosphate [1]): 4.97e-05 ± 2.4e-06 s⁻¹ | KM (glucosamine-6-phosphate [2]): 4.15 ± 0.61 mM | self-cleavage kobs at 160 uM GlcN6P (glucosamine-6-phosphate [7]): < 1e-05 s⁻¹ | self-cleavage kobs at 10000 uM GlcN6P (glucosamine-6-phosphate [5]): 3.51e-05 ± 7.6e-06 s⁻¹

A14G G44U
kcat (glucosamine-6-phosphate [1]): 0.00141 ± 0.00018 s⁻¹ | KM (glucosamine-6-phosphate [2]): 4.65 ± 0.84 mM | self-cleavage kobs at 160 uM GlcN6P (glucosamine-6-phosphate [7]): 4.99e-05 ± 2e-05 s⁻¹ | self-cleavage kobs at 640 uM GlcN6P (glucosamine-6-phosphate [3]): 0.000163 ± 2.5e-05 s⁻¹ | self-cleavage kobs at 2500 uM GlcN6P (glucosamine-6-phosphate [4]): 0.000558 ± 0.0001 s⁻¹ | self-cleavage kobs at 10000 uM GlcN6P (glucosamine-6-phosphate [5]): 0.000923 ± 0.00019 s⁻¹

A15G A52G
kcat (glucosamine-6-phosphate [1]): 0.00182 ± 0.00044 s⁻¹ | KM (glucosamine-6-phosphate [2]): 3.75 ± 1.4 mM | self-cleavage kobs at 160 uM GlcN6P (glucosamine-6-phosphate [7]): 8.59e-05 ± 2.3e-05 s⁻¹ | self-cleavage kobs at 640 uM GlcN6P (glucosamine-6-phosphate [3]): 0.000293 ± 3.7e-05 s⁻¹ | self-cleavage kobs at 2500 uM GlcN6P (glucosamine-6-phosphate [4]): 0.000596 ± 8.6e-05 s⁻¹ | self-cleavage kobs at 10000 uM GlcN6P (glucosamine-6-phosphate [5]): 0.0015 ± 0.00019 s⁻¹

U57G C68U
kcat (glucosamine-6-phosphate [1]): 3.41e-05 ± 1.5e-05 s⁻¹ | self-cleavage kobs at 40 uM GlcN6P (glucosamine-6-phosphate [6]): < 1e-05 s⁻¹ | self-cleavage kobs at 640 uM GlcN6P (glucosamine-6-phosphate [3]): 3.46e-05 ± 1.4e-05 s⁻¹ | self-cleavage kobs at 2500 uM GlcN6P (glucosamine-6-phosphate [4]): 6.22e-05 ± 1.2e-05 s⁻¹ | self-cleavage kobs at 10000 uM GlcN6P (glucosamine-6-phosphate [5]): 1.92e-05 ± 8.6e-06 s⁻¹

U56A C68G C71U
kcat (glucosamine-6-phosphate [1]): 4.87e-05 ± 2e-05 s⁻¹ | self-cleavage kobs at 640 uM GlcN6P (glucosamine-6-phosphate [3]): 7.83e-05 ± 1.6e-05 s⁻¹ | self-cleavage kobs at 2500 uM GlcN6P (glucosamine-6-phosphate [4]): 4e-05 ± 1.6e-05 s⁻¹

U49A G66C
kcat (glucosamine-6-phosphate [1]): < 1e-05 s⁻¹ | self-cleavage kobs at 640 uM GlcN6P (glucosamine-6-phosphate [3]): < 1e-05 s⁻¹

C16G A52U
kcat (glucosamine-6-phosphate [1]): 0.00015 ± 2.4e-05 s⁻¹ | KM (glucosamine-6-phosphate [2]): 7.79 ± 2.7 mM | self-cleavage kobs at 10000 uM GlcN6P (glucosamine-6-phosphate [5]): 8.41e-05 ± 1.5e-05 s⁻¹

A15C G40U
kcat (glucosamine-6-phosphate [1]): 0.000399 ± 4.3e-05 s⁻¹ | KM (glucosamine-6-phosphate [2]): 1.14 ± 0.23 mM | self-cleavage kobs at 160 uM GlcN6P (glucosamine-6-phosphate [7]): 5.39e-05 ± 1e-05 s⁻¹ | self-cleavage kobs at 640 uM GlcN6P (glucosamine-6-phosphate [3]): 0.000135 ± 1.4e-05 s⁻¹ | self-cleavage kobs at 2500 uM GlcN6P (glucosamine-6-phosphate [4]): 0.000333 ± 5.3e-05 s⁻¹ | self-cleavage kobs at 10000 uM GlcN6P (glucosamine-6-phosphate [5]): 0.000348 ± 4.2e-05 s⁻¹
